Earlier results in paper PMC7106362.

Biological target: m157 (Murine cytomegalovirus) (UniProt A8E1S5)
Test: SPR

Substance: Ly49H (from UniProt Q60682)
- Kd: 1000 nM
